The source of these data is patent US20220023399A1, “BLOOD COMPONENT POTENTIATION OF LYTIC PROTEIN ANTI-BACTERIAL ACTIVITY AND METHODS AND USES THEREOF” (priority 2017, published 2022).

For assay [1], the system named is S. aureus ATCC 43300 (MRSA). Nature of the assay: Checkerboard assay, additional MRSA strains. The class given is cell-based. The note with it: paired agent not given.
For assay [2], the system named is S. aureus HPV 107 (MRSA). Nature of the assay: Checkerboard assay, additional MRSA strains. Format: cell-based. The note with it: paired agent not given.
Assay [3] relates to S. aureus strain MW2. Nature of the assay: Transmission electron microscopy of lytic activity. Format: cell-based. On the procedure:
FIG. 13 depicts TEM analysis of S. aureus strain MW2 treated with PlySs2 (CF-301) in either human serum (HuS) or MHB for 15 minutes.
Staphylococci were treated with a range of PlySs2 (CF-301) concentrations for […] in either human serum or MHB before analysis by transmission electron microscopy (TEM). […] In addition to the more rapid bacteriolysis in serum, the lytic event was visually different in comparison to the event in MHB. In human serum, all bacteria are encased in a proteinaceous sheath presumably consisting of host proteins including HSA. […] In contrast, the lytic event in MHB appears as the classic cytoplasmic membrane bubbling and extrusion just prior to lysis.
Electron Microscopy. Mid-log phase strain MW2 growing in either CAMHB or human serum (Sigma-Aldrich) was treated with the indicated concentrations of PlySs2 (CF-301) or buffer alone (control) at 37° C. for 15 minutes. The cells were then washed with 1× phosphate buffer (PB) and resuspended in a solution of 4% paraformaldehyde and 2% glutaraldehyde in 0.1 M cacodylate buffer (pH 7.4). The samples were post-fixed in 1% osmium tetroxide, block stained with uranyl acetate, and processed according to standard procedures by The Rockefeller University Electron Microscopy Service. Samples were visualized using a Tecnai™ Spirit BT Transmission Electron Microscope (FEI). […]

Assay [4] deals with S. aureus strain MW2. Particulars: CAMHB (Schuch 2014); cited from earlier work.
Where [5] appears, read: medium head missing (human serum).

B1: PlySs2 (CF-301): antistaphylococcal lysin from a Streptococcus suis prophage; N-terminal CHAP domain, C-terminal SH3-type binding domain; SEQ ID NO:3 (protein, listed as Streptococcus suis)
chain: MTTVNEALNNVRAQVGSGVSVGNGECYALASWYERMISPDATVGLGAGVGWVSGAIGDTISAKNIGSSYNWQANGWTVSTSGPFKAGQIVTLGATPGNPYGHVVIVEAVDGDRLTILEQNYGGKRYPVRNYYSAASYRQQVVHYITPPGTVAQSAPNLAGSRSYRETGTMTVTVDALNVRRAPNTSGEIVAVYKRGESFDYDTVIIDVNGYVWVSYIGGSGKRNYVATGATKDGKRFGNAWGTFK
For the molecule B1, the ΣFICavg in assay [1] (CAMHB) stood at 0.87; in assay [1] (setting [5]), 0.29; in assay [2] (CAMHB), 0.64; in assay [2] (setting [5]), 0.44. The ΣFICmin was 0.5 in assay [1] (CAMHB), 0.25 in assay [1] (setting [5]), 0.5 in assay [2] (CAMHB) and 0.38 in assay [2] (setting [5]). The “concentration at which bacteriolytic activity was observed by TEM (only the highest tested)” value in assay [3] (MHB) is 5 µg/mL. Moreover, the “bacteriolysis observed by TEM” value in assay [3] (human serum, all concentrations over a 100-fold range) is “widespread evidence of lysis”. For the same molecule, the “minimum concentration required for synergy with daptomycin” value in assay [4] was 4 µg/mL.
